According to publication PMC5663490 (PLoS ONE, 2017):

T1: HMunc18c (mouse, UniProt Q60770 1-592)
T1 construct: pQE30 vector; also called Munc18-3; source: E. coli BL21 with GroEL/ES chaperones, purified (Ni2+ resin, SEC, MonoS if required); not shown: His6, N-terminal, kept
T1 sequence (looked up): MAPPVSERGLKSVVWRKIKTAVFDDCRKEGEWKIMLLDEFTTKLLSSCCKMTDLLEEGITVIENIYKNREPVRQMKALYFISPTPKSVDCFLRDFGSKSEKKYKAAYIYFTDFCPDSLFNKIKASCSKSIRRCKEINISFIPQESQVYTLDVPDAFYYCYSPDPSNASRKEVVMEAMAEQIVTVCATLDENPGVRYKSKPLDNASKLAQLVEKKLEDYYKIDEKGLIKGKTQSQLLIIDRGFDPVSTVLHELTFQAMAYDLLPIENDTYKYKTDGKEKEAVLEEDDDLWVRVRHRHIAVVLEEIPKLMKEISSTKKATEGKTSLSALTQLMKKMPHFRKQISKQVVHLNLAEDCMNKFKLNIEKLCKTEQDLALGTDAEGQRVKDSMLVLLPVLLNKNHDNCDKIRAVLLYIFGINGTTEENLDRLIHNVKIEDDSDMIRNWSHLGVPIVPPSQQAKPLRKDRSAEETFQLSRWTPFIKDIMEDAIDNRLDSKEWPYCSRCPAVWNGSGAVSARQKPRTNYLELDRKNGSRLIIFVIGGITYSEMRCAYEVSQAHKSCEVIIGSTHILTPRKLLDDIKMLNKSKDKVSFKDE


Columns and labels:
HMunc18c (mouse) = HMunc18c (mouse) (UniProt Q60770); assay: ITC; Munc18 proteins (HMunc18c or Munc18a-His) at 10–20 μM with Syntaxin partners at 100–550 μM; 298 K; 25 mM HEPES pH 8, 200 mM NaCl, 2 mM β-mercaptoethanol, 10% glycerol; 16 injections of 2.45 μL; which partner was in the syringe is not said
HMunc18c = molecular target: T1, HMunc18c; assay: as above; settings: both partners purified

Molecule	Kd (HMunc18c (mouse)) [nM]	dH (HMunc18c (mouse)) [kcal/mol]	stoichiometry N (HMunc18c (mouse))	Kd (HMunc18c) [nM]	dH (HMunc18c) [kcal/mol]	stoichiometry N (HMunc18c)
ΔNSx1_(25-261)-His (from UniProt P32851 25-261) (domain or fragment)	730000	-4.44	1.07			
Sx1_(1-261)-His (from UniProt P32851 1-261) (domain or fragment)	80	-15.2	1.03			
Sx4_(1-275)-His (domain or fragment, rat, UniProt Q08850 1-275, looked up, cloned into pET20b; also called Syntaxin4; not shown: His6, C-terminal, kept) MRDRTHELRQGDNISDDEDEVRVALVVHSGAARLSSPDDEFFQKVQTIRQTMAKLESKVRELEKQQVTILATPLPEESMKQGLQNLREEIKQLGREVRAQLKAIEPQKEEADENYNSVNTRMKKTQHGVLSQQFVELINKSNSMQSEYREKNVERIRRQLKITNAGMVSDEELEQMLDSGQSEVFVSNILKDTQVTRQALNEISARHSEIQQLERSIRELHEIFTFLATEVEMQGEMINRIEKNILSSADYVERGQEHVKIALENQKKARKKKVM				100	-14.1	1.03
